One series deals with Puf6p (Saccharomyces cerevisiae, UniProt Q04373 2-656). The experiment in a line: EMSA; EMSA: 20 mM HEPES pH 7.8, 200 mM NaCl, 2 mM MgCl2, 2 mM DTT, 4% glycerol, 30 or 100 ug/ml yeast tRNA, 5 nM RNA, 20 C; filter binding: 20 mM HEPES pH 7.4-7.5 (7.9 with She3p), 150 mM NaCl, 2 mM MgCl2, 2 mM DTT, 30 ug/ml yeast tRNA, 0.5 nM RNA; pull-down: HNMD buffer, 4 C. The settings on record: protein: recombinant; tags: GST tag (cleaved for EMSA; retained in GST pull-downs); label: 32P; stem-loop. On the technique in general: A gel shift assay detects complexes by their altered migration in electrophoresis.

In another series the target is She2p (Saccharomyces cerevisiae, UniProt P36068 1-246). The experiment in a line: filter binding; +++ reference; EMSA: 20 mM HEPES pH 7.8, 200 mM NaCl, 2 mM MgCl2, 2 mM DTT, 4% glycerol, 30 or 100 ug/ml yeast tRNA, 5 nM RNA, 20 C; filter binding: 20 mM HEPES pH 7.4-7.5 (7.9 with She3p), 150 mM NaCl, 2 mM MgCl2, 2 mM DTT, 30 ug/ml yeast tRNA, 0.5 nM RNA; pull-down: HNMD buffer, 4 C. The settings on record: protein: recombinant; tags: GST tag (PreScission-cleaved); chain copies: 4; label: 32P; stem-loop.

The target of another series is She2p;She3p (Saccharomyces cerevisiae;Saccharomyces …, UniProt P36068;P38272 1-246;1-425, |). The experiment in a line: EMSA; She3p constant 25 nM, She2p varied; EMSA: 20 mM HEPES pH 7.8, 200 mM NaCl, 2 mM MgCl2, 2 mM DTT, 4% glycerol, 30 or 100 ug/ml yeast tRNA, 5 nM RNA, 20 C; filter binding: 20 mM HEPES pH 7.4-7.5 (7.9 with She3p), 150 mM NaCl, 2 mM MgCl2, 2 mM DTT, 30 ug/ml yeast tRNA, 0.5 nM RNA; pull-down: HNMD buffer, 4 C. As to conditions: protein: recombinant;recombinant; tags: GST tag (PreScission-cleaved);C-terminal His6; chain copies: 4;2; label: 32P; stem-loop.
Sequence of She2p;She3p (P36068 whole entry, one chain of several): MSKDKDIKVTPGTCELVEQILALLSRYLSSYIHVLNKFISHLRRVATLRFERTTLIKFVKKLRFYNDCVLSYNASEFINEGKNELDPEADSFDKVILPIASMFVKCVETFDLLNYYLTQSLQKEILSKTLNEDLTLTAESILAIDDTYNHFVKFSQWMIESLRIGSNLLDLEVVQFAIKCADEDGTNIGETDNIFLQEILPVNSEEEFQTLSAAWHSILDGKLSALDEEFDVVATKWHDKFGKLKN

Sequence of Puf6p (Q04373 2-656): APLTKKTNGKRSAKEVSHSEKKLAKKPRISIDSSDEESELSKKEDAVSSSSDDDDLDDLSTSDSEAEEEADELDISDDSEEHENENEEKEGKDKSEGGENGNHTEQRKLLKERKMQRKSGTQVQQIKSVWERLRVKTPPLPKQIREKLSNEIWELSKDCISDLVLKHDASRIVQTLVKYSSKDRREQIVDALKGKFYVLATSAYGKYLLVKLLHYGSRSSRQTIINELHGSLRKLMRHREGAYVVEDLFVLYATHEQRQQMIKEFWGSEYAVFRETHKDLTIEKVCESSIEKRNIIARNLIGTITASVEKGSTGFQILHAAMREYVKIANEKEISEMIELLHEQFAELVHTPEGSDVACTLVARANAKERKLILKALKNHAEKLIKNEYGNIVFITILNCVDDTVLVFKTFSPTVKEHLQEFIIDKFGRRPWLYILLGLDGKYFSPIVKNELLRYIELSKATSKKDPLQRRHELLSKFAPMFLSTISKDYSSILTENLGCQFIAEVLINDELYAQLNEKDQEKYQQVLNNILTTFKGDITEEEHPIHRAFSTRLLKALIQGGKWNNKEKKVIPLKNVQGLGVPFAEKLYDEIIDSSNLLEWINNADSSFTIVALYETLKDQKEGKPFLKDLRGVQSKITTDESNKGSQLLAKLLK
Sequence of She2p (P36068 whole entry): as the sequence (P36068 whole entry, one chain of several) above

B1: ASH1 E3-118 (structured_RNA)
RNA: GAGACAGUAGAGAAUUGAUACAUGGAUAACUGAAUCUCUUUCAACUAAUAAGAGACAUUAUCACGAAACAAUUGUACAUUUCUCUCCUUGUCUGUGCUAAAUAAACUACAAAUAAAAA
As for B1, the binding result with Puf6p and with She2p was “binds” in each case. Further, the Kd with She2p;She3p is around 25 nM.

By Kd is commonly meant the concentration at which binding is half-saturated.
